Assay results reported in PMC12548936, “Microfluidic‐Assisted Evolution of a Robust NAD^+‐Dependent Enzyme with Improved Isobutanol Tolerance at Elevated Temperatures” (Chemsuschem, 2025).
Numbering of substitutions follows the chain as printed. Names and notes keep the numbering of the source.

Columns and labels:
[1] = substrate: NC(=O)c1ccc[n+]([C@@H]2O[C@H](COP(=O)(O)OP(=O)(O)OC[C@H]3O[C@@H](n4cnc5c(N)ncnc54)[C@H](O)[C@@H]3O)[C@@H](O)[C@H]2O)c1; test: photometric ALDH activity assay, Michaelis-Menten fit; type: biochemical, Herbaspirillum seropedicae; settings: co-substrate 5 mM D-glyceraldehyde, 100 mM HEPES, varied: cofactor
[2] = substrate: O=C[C@H](O)CO; test: purified protein; settings: co-substrate 5 mM NAD+, 100 mM HEPES
[3] = wild type, Chis tag, pH 7.5, 30 °C, 30.0 °C
[4] = FIN5, GS-linker Nhis tag, pH 7.5, 50 °C, 50.0 °C
[5] = StEP template, GS-linker Nhis tag, pH 7.5, 50 °C
[6] = StEP template, GS-linker Nhis tag, pH 7.5, 50 °C, 50.0 °C
[7] = FIN3, GS-linker Nhis tag, pH 7.5, 50 °C
[8] = FIN3, GS-linker Nhis tag, pH 7.5, 50 °C, 50.0 °C
[9] = FIN4, GS-linker Nhis tag, pH 7.5, 50 °C
[10] = FIN4, GS-linker Nhis tag, pH 7.5, 50 °C, 50.0 °C

B1: HsALDH (HsALDH_Chis; NAD+-dependent aldehyde dehydrogenase / glyceraldehyde dehydrogenase GADH) (Herbaspirillum seropedicae SmR1) (protein)
chain: MYKDVQLFINGEWTASASGRTIDVINPATEEVIGKIAHADRADLDRALEAASKGFETWRNMSAFERSKIMRRAADLLRERAEEVARLMTMEQGKPLAEAKMETLGAADTIDWFAEEARRTYGRLVPARVPGAYQMVIKEPVGPVAAFTPWNFPLNQVVRKLSAALAAGCSIIVKAPEETPASPAELIRAYADAGVPAGVINLVYGVPAEISEYLIPHPVIKKISFTGSTPVGKQLAALAGQHMKRATMELGGHAPAMVFDDADVDVAAKMLATAKFRNAGQVCVSPTRFLVQKGVFNAFVDKFVTYAEQLKVGNGLEAGITMGPVANKRRIPALEALIDDAVSQGAQLRTGGKRIGNKGYFFQPTVLTNLPLQARAMNEEPFGPLALINSFETLDEVITEANRLPYGLAAYAFAKSAHTKHALAARVESGMLTINHLGLALPELPFGGIKDSGYGSEGGTEAIEAYINTKLVTQLDV
notes: recombinant, E. coli BL21(DE3); wild type with C-terminal His tag (Chis); models show dimerizing chains
[1]; wild type, Chis tag, pH 7.5, 30 °C
  Km: 590 µM
[2]; [3]
  Km: 13000 ± 400 µM
  kcat: 68.6 ± 0.8 s⁻¹

B2: HsALDH (HsALDH_Chis; NAD+-dependent aldehyde dehydrogenase / glyceraldehyde dehydrogenase GADH) (Herbaspirillum seropedicae SmR1; … (protein)
chain: B1 chain with I36V, F147L, V158A, K221R, V284I, L432M
notes: as for B1
[1]; FIN5, GS-linker Nhis tag, pH 7.5, 50 °C
  Km: 340 µM
[2]; [4]
  Km: 3500 ± 500 µM
  kcat: 54.8 ± 1.9 s⁻¹

B3: HsALDH (HsALDH_Chis; NAD+-dependent aldehyde dehydrogenase / glyceraldehyde dehydrogenase GADH) (Herbaspirillum seropedicae SmR1; F147L/I36V/V284I) (protein)
chain: B1 chain with I36V, F147L, V284I
notes: as for B1
[1]; [5]
  Km: 510 ± 30 µM
  kcat: 66.1 ± 2.0 s⁻¹
[2]; [6]
  Km: 12700 ± 1200 µM
  kcat: 66.1 ± 2.0 s⁻¹

B4: HsALDH (HsALDH_Chis; NAD+-dependent aldehyde dehydrogenase / glyceraldehyde dehydrogenase GADH) (Herbaspirillum seropedicae SmR1; F147L/I36V/K221R/V158A/V284I) (protein)
chain: B1 chain with I36V, F147L, V158A, K221R, V284I
notes: as for B1
[1]; [7]
  Km: 420 ± 20 µM
  kcat: 46.9 ± 1.3 s⁻¹
[2]; [8]
  Km: 3300 ± 400 µM
  kcat: 46.9 ± 1.3 s⁻¹

B5: HsALDH (HsALDH_Chis; NAD+-dependent aldehyde dehydrogenase / glyceraldehyde dehydrogenase GADH) (Herbaspirillum seropedicae SmR1; F147L/I36V/K221R/L432M/V284I) (protein)
chain: B1 chain with I36V, F147L, K221R, V284I, L432M
notes: as for B1
[1]; [9]
  Km: 500 ± 60 µM
  kcat: 46.6 ± 1.4 s⁻¹
[2]; [10]
  Km: 7200 ± 800 µM
  kcat: 46.6 ± 1.4 s⁻¹
